Data: paper PMC8881573, “Inhibition of SRP-dependent protein secretion by the bacterial alarmone (p)ppGpp” (Nature Communications, 2022)

Assays:
[1] = target: (Bs)MifM-stalled RNC (B. subtilis | B. subtilis (endogenous in the B. subtilis 168 extract)) (UniProt Q7WY64); experiment: cryo-EM structure; (Bs)SRP pre-incubated with GMPPNP, tenfold molar excess over MifM-stalled RNCs, 10 min at room temperature
[2] = target: (Bs)MifM-stalled RNC (B. subtilis | B. subtilis (endogenous in the B. subtilis 168 extract)) (UniProt Q7WY64); experiment: cryo-EM structure; (Bs)SRP pre-incubated with pppGpp, tenfold molar excess over MifM-stalled RNCs, 10 min at room temperature

percent of the particles with stably bound SRP (% of the particles) [1]: 24
percent of the particles with stably bound SRP (% of the particles) [2]: 38
Substance: recombinant (Bs)SRP (Ffh and 6S RNA) (from UniProt P37105 1-446) (natural protein)
